Consider 1 molecule from US20250270305A1 (OSAKA UNIVERSITY, published 2025).

The target of experiment [1] is T1, TGGEVIFKALS peptide (amino acid residues 192 to 202 of human Netrin-4) (human).
T1 construct: The immunogen was C-Ahx-TGGEVIFKALS linked to bovine thyroglobulin; The ELISA antigen is named only as the TGGEVIFKALS peptide
T1 peptide: TGGEVIFKALS
The experiment in a line: ELISA screening of hybridoma culture supernatant. The source says: (§1) Four mice were immunized with the epitope peptide. After four immunizations, the blood was collected to determine the antibody titers using ELISA against recombinant human Netrin-4 and TGGEVIFKALS peptide. Mouse lymphocytes with increased antibody titers were fused with myeloma cells, and cultured in HAT medium to produce hybridomas. About ten days after cell fusion, antibody production in the culture supernatant was screened by ELISA (against recombinant human Netrin-4 and TGGEVIFKALS peptide), and 95 positive wells were selected. Primary cloning was then performed by limiting dilution, followed by screening by ELISA (against recombinant human Netrin-4 and TGGEVIFKALS peptide). Secondary cloning was then performed by limiting dilution, followed by screening by ELISA (against recombinant human Netrin-4 and TGGEVIFKALS peptide). A single clone was selected. The selected clone was expanded, and cultured at a high density in a serum-free medium. The culture medium was collected and purified on a protein A column to produce IgG. Purity was measured using AKTA-FPLC, and the titer was measured by ELISA. IgG was further purified with low endotoxin levels and used for the subsequent experiments.
(In an ELISA, binding on a coated surface is turned into a signal by an enzyme label.)

Experiment [2] deals with T2, recombinant human Netrin-4 (human, UniProt Q9HB63 19-628, limits assumed).
T2 sequence: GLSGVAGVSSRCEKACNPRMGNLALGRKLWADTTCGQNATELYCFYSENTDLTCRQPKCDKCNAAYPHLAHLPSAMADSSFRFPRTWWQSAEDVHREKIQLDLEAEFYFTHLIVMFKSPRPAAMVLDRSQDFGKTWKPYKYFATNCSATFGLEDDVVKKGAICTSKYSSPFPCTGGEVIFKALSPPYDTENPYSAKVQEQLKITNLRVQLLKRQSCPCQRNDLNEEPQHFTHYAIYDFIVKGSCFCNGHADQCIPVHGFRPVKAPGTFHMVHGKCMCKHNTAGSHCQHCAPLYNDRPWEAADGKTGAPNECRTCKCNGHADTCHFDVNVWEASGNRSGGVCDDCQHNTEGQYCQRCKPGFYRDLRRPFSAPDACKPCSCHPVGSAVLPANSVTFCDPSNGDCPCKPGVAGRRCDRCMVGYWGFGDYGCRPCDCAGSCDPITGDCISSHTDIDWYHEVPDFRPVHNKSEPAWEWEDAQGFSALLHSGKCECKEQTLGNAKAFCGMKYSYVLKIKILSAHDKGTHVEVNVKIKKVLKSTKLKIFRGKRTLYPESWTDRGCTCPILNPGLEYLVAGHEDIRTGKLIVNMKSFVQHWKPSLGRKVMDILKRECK
The experiment in a line: ELISA screening of hybridoma culture supernatant.
Description: as §1

B1: anti-Netrin-4 monoclonal antibody produced by the hybridoma cell line Human Netrin-4 (192-202)-6A1 (Accession No. NITE BP-03603) (antibody, V domains shown)
VH: QVQLHQSGPELVRPGASVTLSCKASGYTFTDYEMHWVKQTPVHGLEWIGAIDPETGDTVYNQKFKGKATLTADKSSSTAYMELSSLTSEDSAVYYCVDGFSDHYWGQGTTLTVSS
VL: VLVLTQTPLSLPVRLGDRASISCRSSQSLVHSSGNTFLHWYLQKPGQSPKLLIYKVSSRFSGVPDRFSGSGSGTDFTLKISRMEAEDLGVYFCSQSTHIPYTFGGGTKLEIKR
notes: In the ELISA screens the antibody was hybridoma culture supernatant
On to B1, for which the binding result in experiment [1] and in experiment [2] was “binds” throughout.
